Measurements as given in patent US20200148771A1 (HARPOON THERAPEUTICS, published 2020).

T1: CTLA4 (Acro Biosystems), coated on plate (UniProt P16410 37-162, limits assumed)
T1 construct: Bought antigen; the construct is not described; also called target antigen
T1 sequence (looked up): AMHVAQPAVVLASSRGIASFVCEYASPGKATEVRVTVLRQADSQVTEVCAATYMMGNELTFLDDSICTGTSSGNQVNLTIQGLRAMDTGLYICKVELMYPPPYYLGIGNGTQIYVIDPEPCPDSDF

B1: Treme-ProMonoMab, matriptase-treated (active form) (antibody, V domains shown)
VH: QVQLVESGGGVVQPGRSLRLSCAASGFTFSSYGMHWVRQAPGKGLEWVAVIWYDGSNKYYADSVKGRFTISRDNSKNTLYLQMNSLRAEDTAVYYCARDPRGATLYYYYYGMDVWGQGTTVTVSS
VL: DIQMTQSPSSLSASVGDRVTITCRASQSINSYLDWYQQKPGKAPKLLIYAASSLQSGVPSRFSGSGSGTDFTLTISSLQPEDFATYYCQQYYSTPFTFGPGTKVEIKG
notes: Same chains as the prodrug, treated overnight with 40 nM recombinant human matriptase; also called protease-treated
B2: Seli-ProMonoMab, matriptase-treated (active form) (antibody, V domains shown)
VH: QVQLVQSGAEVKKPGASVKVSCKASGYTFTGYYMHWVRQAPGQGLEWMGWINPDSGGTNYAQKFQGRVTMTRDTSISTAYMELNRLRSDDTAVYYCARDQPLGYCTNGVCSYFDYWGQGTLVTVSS
VL: DIQMTQSPSSVSASVGDRVTITCRASQGIYSWLAWYQQKPGKAPNLLIYTASTLQSGVPSRFSGSGSGTDFTLTISSLQPEDFATYYCQQANIFPLTFGGGTKVEIKG
notes: Same chains as the prodrug, treated overnight with 40 nM recombinant human matriptase
B3: Dace-ProMonoMab, matriptase-treated (active form) (antibody, V domains shown)
VH: EVQLVESGGGLVQPGGSLRLSCAASGYSFTGYYIHWVRQAPGKGLEWVARVIPNAGGTSYNQKFKGRFTLSVDNSKNTAYLQMNSLRAEDTAVYYCAREGIYWWGQGTLVTVSS
VL: DIQMTQSPSSLSASVGDRVTITCRSSQSLVHSNGNTFLHWYQQKPGKAPKLLIYTVSNRFSGVPSRFSGSGSGTDFTLTISSLQPEDFATYFCSQTTHVPWTFGQGTKVEIKG
notes: as for B1

What was measured:
[1] = target: T1, CTLA4 (Acro Biosystems), coated on plate; assay: ELISA, CTLA4 coated at 1 µg/ml, detection with anti-human IgG-Fc-peroxidase
Procedure: (§1) The affinities of the exemplary monovalent antibodies, in the prodrug and activated forms, were measured by an ELISA assay. Briefly, target antigens, CD40 or CTLA4 (both from Acro Biosystems), were coated at 1 μg/ml in a Nunc MaxiSorp plate (ThermoFisher) for 1 hour and blocked with SuperBlock (ThermoFisher). The exemplary monovalent antibodies, whether intact or matriptase-activated, were added at concentrations ranging from 0.001 to 1000 nM, as indicated in the x-axis of each plot shown in FIG. 4, and incubated for 1 hour at room temperature. Plates were washed 3 times using PBS supplemented with 0.05% Tween-20 (PBS-T). Goat anti-human IgG-Fc-peroxidase conjugate antibody (Sigma) was used at 1:10,000 dilution in PBS-T and incubated for an additional hour. Plates were washed 3 times using PBS-T, followed by development using TMB substrate (ThermoFisher), and neutralizing with 0.1 M sulfuric acid. The resulting colorimetric assay was measured at 450 nm using SpectraMax spectrophotometer (Molecular Devices).
(§2) Differential binding of the inducible monovalent antibodies in their prodrug and active forms was determined by comparing the apparent KD of the untreated (prodrug) or the protease-treated (active) forms of the inducible monovalent antibodies to their target antigens in an ELISA assay (results shown in FIG. 4).

[2] = target: T2, CD40 (Acro Biosystems), coated on plate (UniProt P25942 21-193); assay: ELISA, CD40 coated at 1 µg/ml, detection with anti-human IgG-Fc-peroxidase
T2 construct: Bought antigen; the construct is not described; also called target antigen
T2 sequence (P25942 21-193 limits assumed): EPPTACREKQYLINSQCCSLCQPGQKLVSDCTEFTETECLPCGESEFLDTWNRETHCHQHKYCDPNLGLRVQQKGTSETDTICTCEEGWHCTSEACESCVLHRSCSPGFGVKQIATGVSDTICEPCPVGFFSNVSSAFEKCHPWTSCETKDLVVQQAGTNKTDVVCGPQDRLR
Procedure: as §1, §2

Binder | fold difference in apparent affinity (apparent KD), matriptase-treated against untreated prodrug [1] [fold] | fold difference in apparent affinity (apparent KD), matriptase-treated against untreated prodrug [2] [fold]
B1 | 5.3 | 
B2 |  | 2
B3 |  | 5.1
